Assay results taken from patent publication US20070161783A1 (published 2007).
Values belong to the binder of their own block, whether it stands above or below them.

What was measured:
[1] = molecular target: H3.77_L3 I332E/H268E Hybrid
[2] = molecular target: H3.77_L3 I332E/G236A Hybrid
[3] = molecular target: H3.77_L3 S239D/I332E Hybrid
[4] = molecular target: H3.77_L3 S239D/I332E/A330Y Hybrid
[5] = molecular target: H3.77_L3 S239D/I332E/G236A Hybrid
[6] = molecular target: H3.77_L3 WT Hybrid
[7] = molecular target: H3.77_L3 I332E/H268E/G236A Hybrid
[8] = molecular target: H3.77_L3 S239D/H268E Hybrid
[9] = molecular target: H1L4; assay: SPR
[10] = molecular target: H3L2; assay: SPR
[11] = molecular target: H4L3; assay: SPR
[12] = molecular target: H1L3; assay: SPR
[13] = molecular target: H3L3; assay: SPR
[14] = molecular target: H4L4; assay: SPR
[15] = molecular target: H2L1; assay: SPR
[16] = molecular target: H3L1; assay: SPR
[17] = molecular target: H3L4; assay: SPR
[18] = molecular target: H2L3; assay: SPR
[19] = molecular target: H2L4; assay: SPR
[20] = molecular target: H6L4; assay: SPR
[21] = molecular target: H6L3; assay: SPR
[22] = molecular target: H4L1; assay: SPR
[23] = molecular target: H1L1; assay: SPR
[24] = molecular target: T1, extracellular domain of Ep-CAM (UniProt P16422 24-265, DIGylated (sites not given)); assay: AlphaScreen competition
T1 chain: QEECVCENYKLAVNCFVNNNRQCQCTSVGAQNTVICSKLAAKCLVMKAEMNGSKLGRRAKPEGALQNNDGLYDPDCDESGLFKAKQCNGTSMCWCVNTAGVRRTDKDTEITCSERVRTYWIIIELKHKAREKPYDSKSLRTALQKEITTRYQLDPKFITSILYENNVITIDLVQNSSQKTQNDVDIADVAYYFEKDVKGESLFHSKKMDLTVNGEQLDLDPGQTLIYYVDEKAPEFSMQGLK

[25] = molecular target: FcγRIIIa (158V form) (human, UniProt P08637 17-208); assay: AlphaScreen competition
Chain of FcγRIIIa (158V form) (P08637 17-208 F176V): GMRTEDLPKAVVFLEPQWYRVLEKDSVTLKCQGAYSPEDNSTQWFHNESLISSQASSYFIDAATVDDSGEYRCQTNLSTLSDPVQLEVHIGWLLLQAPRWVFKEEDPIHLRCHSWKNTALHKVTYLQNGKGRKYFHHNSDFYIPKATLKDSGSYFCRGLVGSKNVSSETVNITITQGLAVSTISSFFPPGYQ

Kd [1]: 117 nM | Kd [2]: 557 nM | Kd [3]: 142 nM | Kd [4]: 144 nM | Kd [5]: 146 nM | Kd [6]: 635 nM | Kd [7]: 154 nM | Kd [8]: 81.5 nM
B1: FcgRIIb (receptor)
chain: TPAAPPKAVLKLEPQWINVLQEDSVTLTCRGTHSPESDSIQWFHNGNLIPTHTQPSYRFKANNNDSGEYTCQTGQTSLSDPVHLTVLSEWLVLQTPHLEFQEGETIVLRCHSWKDKPLVKVTFFQNGKSKKFSRSDPNFSIPQANHSHSGDYHCTGNIGYTLYSSKPVTITVQAP

Kd [9]: 58.9 nM | Kd [10]: 615 nM | Kd [11]: 1310 nM | Kd [12]: 54.1 nM | Kd [13]: 292 nM | Kd [14]: 3000 nM | Kd [15]: 75.4 nM | Kd [16]: 385 nM | Kd [17]: 335 nM | Kd [18]: 63 nM | Kd [19]: 66.6 nM | Kd [20]: 5200 nM | Kd [21]: 4800 nM | Kd [22]: 6600 nM | Kd [23]: 77.8 nM
B2: EpCAM (Fc fusion)
chain: QEECVCENYKLAVNCFVNNNRQCQCTSVGAQNTVICSKLAAKCLVMKAEMNGSKLGRRAKPEGALQNNDGLYDPDCDESGLFKAKQCNGTSMCWCVNTAGVRRTDKDTEITCSERVRTYWIIIELKHKAREKPYDSKSLRTALQKEITTRYQLDPKFITSILYENNVITIDLVQNSSQKTQNDVDIADVAYYFEKDVKGESLFHSKKMDLTVNGEQLDLDPGQTLIYYVDEKAPEFSMQGLK

Kd [1]: 86.1 nM | Kd [2]: 54.4 nM | Kd [3]: 78.9 nM | Kd [4]: 88.9 nM | Kd [5]: 13.7 nM | Kd [6]: 413 nM | Kd [8]: 42.7 nM
B3: R131 FcgRIIa (receptor)
chain: QAAAPPKAVLKLEPPWINVLQEDSVTLTCQGARSPESDSIQWFHNGNLIPTHTQPSYRFKANNNDSGEYTCQTGQTSLSDPVHLTVLSEWLVLQTPHLEFQEGETIMLRCHSWKDKPLVKVTFFQNGKSQKFSRLDPTFSIPQANHSHSGDYHCTGNIGYTLFSSKPVTITVQVPSMGSSSPMG

IC50 [24]: 333 nM | IC50 [25]: 32.7 nM
B4: 17-1A H0 (antibody)
chain: QVQLQQSGAELVRPGTSVKVSCKASGYAFTNYLIEWVKQRPGQGLEWIGVINPGSGGTNYNEKFKGKATLTADKSSSTAYMQLSSLTSDDSAVYFCARDGPWFAYWGQGTLVTVSA
